Data from US20120039932A1.

Biological target: human DC-SIGN (CD209), expressed on 293T cells (human) (UniProt Q9NNX6)
Assay: cell-based or functional assay

UniProt Q9NNX6, sequence (Q9NNX6 whole entry): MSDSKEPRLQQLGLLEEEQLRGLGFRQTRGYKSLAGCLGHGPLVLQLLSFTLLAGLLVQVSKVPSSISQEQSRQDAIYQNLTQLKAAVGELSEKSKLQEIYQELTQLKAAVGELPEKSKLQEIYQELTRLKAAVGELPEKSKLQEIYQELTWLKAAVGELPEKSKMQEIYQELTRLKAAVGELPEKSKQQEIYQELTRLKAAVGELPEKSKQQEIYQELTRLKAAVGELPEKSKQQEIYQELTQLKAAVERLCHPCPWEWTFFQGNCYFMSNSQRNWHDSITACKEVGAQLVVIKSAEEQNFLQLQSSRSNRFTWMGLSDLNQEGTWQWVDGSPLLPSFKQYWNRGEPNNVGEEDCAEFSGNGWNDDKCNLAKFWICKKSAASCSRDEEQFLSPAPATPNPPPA

Substance | GFU/mL on 293-hDC-SIGN cells (transduction titer) [GFU/mL] | Ratio (GFU/mL on 293-hDC-SIGN cells over 293T cells) | GFU/mL on hDC-SIGN cells (transduction titer) [GFU/mL] | Ratio (GFU/mL on hDC-SIGN cells over 293T cells)
Sindbis virus HR strain envelope E2 glycoprotein, on pseudotyped lentiviral vector particles (from UniProt P03316 329-751) | 6.4e+06 | 9.4 |  | 
VSV-G envelope glycoprotein, on pseudotyped lentiviral vector particles (from UniProt P03522 17-511) |  |  | 1.35e+08 | 1.19
